Results reported in US20220056142A1 (Sanofi, published 2022).
Where a chain is given by its changes, count along the chain named.

B1: KE94 (antibody, V domains shown)
VH: QVQLQQSGAELVRPGASVTLSCKASGSTFTDFEIHWVKQTPVHGLEWIGAIDPETGGTAYNQKFKGKAILTAVKSSSTAYMGLRSLTSEDSAVYYCTRNYDGYSRTMDYWGQGTSVTVSS
VL: NIMMTQSPSSLAVSAGEKVTMSCKSSQSVLYSSNQKNYLAWYQQKPGQSPKLLIYWASTRESGVPDRFTGSGSGTDFSLSISSVQTEDLAVYYCHQYLSSYTFGGGTRLEMK
notes: Mouse hybridoma monoclonal antibody
B2: KC18_Hu46 (antibody, human IgG1, kappa, V domains shown)
VH: EVQLVQSGAEVKKPGATVKLSCKASGDTFTDFEIHWVQQAPGKGLEWIGDVDPETGGTAYAEKFQGRATLTADRSTDTAYLELSSLRSEDTAVYYCTRTYDGYPYAFDYWGQGTLVTVSS
VL: DIVMTQSPDSLAVSLGERVTINCKSSQSVLYSDNQKNYLAWYQQKPGQSPKLLIYFASTRESGVPDRFSGSGSGTDFTLTISSVQAEDVAVYYCQQYYSYRTFGGGTKLEIKR
B3: KC18_Hu18 (antibody, human IgG1, kappa, V domains shown)
VH: B2 VH with L81M
VL: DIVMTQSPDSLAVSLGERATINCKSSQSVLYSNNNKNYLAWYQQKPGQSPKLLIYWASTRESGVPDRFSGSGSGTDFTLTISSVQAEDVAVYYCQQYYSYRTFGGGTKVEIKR
B4: KC18_Hu44 (antibody, human IgG1, kappa, V domains shown)
VH: B2 VH
VL: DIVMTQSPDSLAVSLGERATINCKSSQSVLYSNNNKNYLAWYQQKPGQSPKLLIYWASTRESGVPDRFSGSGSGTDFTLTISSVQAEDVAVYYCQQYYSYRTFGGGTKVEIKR
B5: KE58 (antibody, V domains shown)
VH: EVQLQQSGPDLVKPGASVKISCKASGYTVTDYYMNWVKQSHGKSLEWIGDINPNNGVTTYNQKFKDKATLTVDKSSSTAYMELRSLTSEDSAVYYCAREEDFDGFDYWGQGTTLTVSS
VL: DIVMTQSHKFMSTSVGDRVSITCKASQDVSTGVAWYQQKPGQSPQLLIYWASTRHTGVPDRFTGSGSGTDYILTIRSVQAEDLALYYCQQHYSTPLTFGAGTKLELK
notes: as for B1
B6: KC18 (antibody, V domains shown)
VH: QVQLQQSGAELVRPGASVTLSCKASGDTFTDFEIHWVKQTPVHGLEWIGDIDPETGGTAYNQKFRGRAMLTADRSSSTAYMELRSLTSEDSAVYYCTRTYDGYPYAMDYWGQGTSVTVSS
VL: DIVMSQSPSSLAVSVGEKVTMSCKSSQSLLYSNNQKNYLAWYQQKPGQSPKLLIYWASTRESGVPDRFTGSGSGTDFTLTISSVKAEDLAVYYCQQYYSYRTFGGGTKLEIKR
B7: KE35 (antibody, V domains shown)
VH: EVQLQQSGPELVKPGASVKMSCKASGYTFTDYNMHWVKQSHGKSLEWIGYINPNNGGTRYNQKFKGKATLTVNKSSSTAYMELRSLTSEDSAVYYCARERDYDGAMDYWGQGTSVTVSS
VL: DIQMTQSPSSLSASLGGKVTITCKASQDINKFIAWYQHKPGKGPRLLIHYTSTLQPGIPSRFSGSGSGRDYSFSISNLEPEDIATYYCLQYDNLLWTFGGGTKLEIK
notes: as for B1
B8: KE42 (antibody, V domains shown)
VH: B7 VH with E46Q, R59N, K63N, G66D, S77T, A105S, Y108F
VL: B7 VL with Y87F
notes: as for B1

Key:
[1] = biological target: T1, FGFR3 fused to β-galactosidase fragments (FGFR3-PK and FGFR3-EA) co-expressed in U2OS cells; assay: cell-based or functional assay
[2] = biological target: T2, human FGFR3 G380R isoform IIIc, full length, expressed on transfected cells (human, UniProt P22607 23-806); assay: FACS, cells transfected with mutant FGFR3 (G380R)
T2 construct: also called mutant FGFR3; FGFR3^G380R-300.19
Method: (§1) After three washes, the cells were incubated with a fluorescent-conjugated secondary antibody (Invitrogen).

[3] = biological target: T3, wild-type human FGFR3 isoform IIIc, full length, expressed on transfected cells (human, UniProt P22607 23-806); assay: FACS, cells transfected with wild-type FGFR3
T3 construct: also called wild-type FGFR3; FGFR3-300.19
Method: as §1

WT PRCs [4] = biological target: T4, WT PRCs (mouse, UniProt Q61851); assay: cell-based or functional assay
WT PRCs [5] = biological target: T4, WT PRCs; assay: cell-based or functional assay; remark: listed apart in the source
WT PRCs [6] = biological target: T4, WT PRCs; assay: cell-based or functional assay; remark: listed apart in the source
[7] = biological target: T1, FGFR3 fused to β-galactosidase …; assay: cell-based or functional assay; remark: listed apart in the source
[8] = biological target: T1, FGFR3 fused to β-galactosidase …; assay: cell-based or functional assay; remark: listed apart in the source

| Binder | binding result [2] | binding result [3] | also measured |
| --- | --- | --- | --- |
| B1 | binds | binds | EC50, inhibition of FGF18-induced FGFR3 dimerization (RLU, beta-galactosidase complementation in U2OS cells); fitted curve 'KE94 with FGF18' [1]: 0.102 µg/mL |
| B2 | – | – | IC50, inhibition of FGF18-stimulated Erk phosphorylation (pErk/Erk %, HTRF), 'Hu46 on WT PRCs' (WT PRCs [4]): 0.55 µg/ml |
| B3 | – | – | IC50, inhibition of FGF18-stimulated Erk phosphorylation (pErk/Erk %, HTRF), 'Hu18 on WT PRCs' (WT PRCs [5]): 0.42 µg/ml |
| B4 | – | – | IC50, inhibition of FGF18-stimulated Erk phosphorylation (pErk/Erk ratio %, HTRF), 'Hu44 on WT PRCs' (WT PRCs [6]): 0.32 µg/ml |
| B5 | binds | binds | EC50, inhibition of FGF18-induced FGFR3 dimerization (RLU, beta-galactosidase complementation in U2OS cells); fitted curve 'KE58 with FGF18' [7]: 0.423 µg/mL |
| B6 | – | – | EC50, inhibition of FGF18-induced FGFR3 dimerization (RLU, beta-galactosidase complementation in U2OS cells); table column 'KC18 with FGF' [8]: 0.521 µg/mL |
| B7 | binds | binds | – |
| B8 | binds | binds | – |
